Test results taken from the nanobody polyreactivity screen of Harvey et al. (2022).

Test: yeast display, Sf9 membrane polyspecificity reagent, FACS + sequencing; frameworks hold sequencing errors
Summary of the method: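 Synthetic nanobody libraries on Saccharomyces cerevisiae BJ5465 were galactose-induced for 36–48 hours, stained 1 hour at 4 °C with 10% biotinylated, detergent-solubilized Sf9 membrane reagent and enriched on streptavidin microbeads. FACS then separated cells into low and high (top ~1%) gates by anti-HA (expression) and streptavidin (reagent binding) fluorescence. Genes were colony-PCR amplified, MiSeq 2 × 250 sequenced and CDR-length filtered. A clone's polyreactivity label is that of its gate of origin.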

Sequence	polyreactivity (PSR sort gate)
QVQLVESGGGLVQAGGSLRLSCAASGRIFSYNAMGSDRQAPGKERELVADISSGGSTYYADSVKGRFTISRDNAKNSVYLQMNSLKPEDSAVYYCNADYYAFPWTNEYWGQGTQVTVSS	high polyreactivity
QVQLVESGGGLVQAGGSLRLSCAASGSTFYKYAMGRYREAPRKERELVASISRSGGSTSYADSVTGRFTISRDNAKNTVYLQMNSLTPEDTAVYYCAATWRQHPGSMGYWGQGTQVTVSS	high polyreactivity
QVQLVESGGGLVQAGGSLRLSCAASGRTFWGYAMGWYRQAPGKERELVAAISLSGGRTNYADSVKGRFTISRDNAKNTVYLQMNSLKPEDTAVYYCAADKRPDGRMDYWGQGTQVTVSS	high polyreactivity
QVQLVESGGGLVQAGGSLRLSCAASGRIISSYAMGWYRQAPGKERELVAAITSSGGSTYYADSVKGRFTISRDNAKNTVYLQMNSLKPEDTAVYYCAARVFARYYTAYGVETRREEDYWGQGTQLTVSS	low polyreactivity
QVQHVESVGGLVQAGGSLRLSCAASGFTFYGYAMGWYRHATGKERELVPAISQSGGSTTYADSVKGRFTISRDKAKNTVYVQMNSLKPEDTAVYYCAARYPYYWWRHVYGDVEYDFWGQGTQGTVSS	high polyreactivity
QVQLVESGGGLVQAGGSLRLSCAASGSTFRPYAMGWDRQAPGKERELVAAITSTGGSTYYADSVKGRFTISRDNAKNTVYLQMNSLKPEDTAVYYCAAPLVRYAGPYDYWGQGTQVTVSS	low polyreactivity
QVQLVESGGGLDQARGSLRLSCAASGGIFDHNAMGWYRQAPGKEREFVAAITWSGGGTYYADSVKGRFTISRDNAKNTVYLQMNSLKPEDTAVYYCAATVYGIYYYGKDRYDYWGQGTQVTVSS	low polyreactivity
QVQLVESGGGLVQAGVSLRLSWAASGRTGVNAMGWYRQAPGKERGLVAAINTSVGRTYYADSVKGRFTISRDNAKNPVYLQMNCLKPEDTAVYYCNTDRLGAARYDDWGQGTQVTVSS	low polyreactivity
QVQLVESGGGLVQAGGSLRLSCSASGSTFFSYAMGWYRQAPGKERELVATITSGGSTFADSVKWRFTISRDNAKNTVYLQMNSLKPEDTAVYYCNTDVVDCLFYHCECRFNYLGQGTQVTVSS	low polyreactivity
QVQLVETGGGLVQAGGSLRLSCAASGRIFHLYAMGWYRQAPGKERELVAAITFSGGSTYYADSVKGRFTISRDTAKNTVYLQMNSLKPEDTAVYYCAKRSFYWFSSRLPFKYDYWGQGTQVTVSS	low polyreactivity
QVQLVESGGGLVQAGGSLRLSCPASGFTFVRYAMGWYRQAPGKERELVAAISSSGSSTYYADSVKGRFTISRDNAKYTVYLQMNSLKPEDSAVYYCNARAGRGEDYWGQGTQVTVSS	low polyreactivity
QVQLVESGGGLVQAGGSLRLSCAASGRIFYNNAMGWYRQAPGKERELVAAIDWPGGSTDYADSVKGRFTISRDNAKNTVYLQMNSLKPEDTAVYYCVAGHVPYWHGNSYDYWGQGTQVTVSS	low polyreactivity
QVQLVESGGGLVQAGGSLRLSCAASGSTFAANAMGWYRQAPGKERELVAGISESGDRTYADSVKGRFTISRDNPKNTVYLQMNSLKPEDTAVYYCNVGANVYLLYFPSRGGVYDYGYWGQGTQVTVSS	low polyreactivity
QVQLVESAGGLVQAGGILRLSCAASGRIFPYYDMGWYRQAPGKERELVAAITWNGGSTYYADSVKGRFTISRDNANNTVYLQMNSLKPEDTAVYYCAVEPYYYGEDYWGQGTQVTVSS	low polyreactivity
QVQLVESGVGLVQAGGSLRLSCAASGIIFASNGMGWYRQAPGKERELVAAISSGGSTNYADSVKGRFTISRDNAKNTVYLQMNSLKPEDTAVYYCAADRWNREYDYWGQGTQVTVSS	low polyreactivity
QVQLVESGGGLVQAGGSLRLSCAASGSTLVSNAMGGYRQAAGKERELVAAITSGGSTYYADSVKGRFTISRDNAKNTVYLQMNSRKPEDTAVYYCNADRTRGYQRYDYWGQGTQVTVSS	high polyreactivity
QVQLVESGGGLVQAGGSLRLSCAASGRIFQYYAMGWYRQAPGKEREFVAAITGRGTRTYADSVKGRFTISRDNAKYTVYLQMNSLKPEDTAVYYCAKPFHYGRSYRSKMDYWGQGTQVTVSS	high polyreactivity
QVQLVESGGGLVQAGGSLRLSCAASGSIFWGYAMGWNRQAPRKEREMVATITYGGDSTYYADSVKGRFTISRDNAKNTVYLQMNSLKPEDTAVYYCNVGVEPYDYVYWGQGTQVTVSS	low polyreactivity
QDQLVESCGGLVQAGGSLRLSCAASGRTFYRYAMGWYIQAPGKERELVADITRRVGITHYADSVKGRFTISRDYAKNTVYLKMNSLKPEDTAVYYCAARKYGSRYRLKYDYWGQGTQVTVSS	high polyreactivity
QVQLVESGGGLVQAGGSLRLSCASSGRIFWRNAMGWYRQAPGKERELVAAITSGGRTNYADSVKGRFTISRDNAKNPVYLQMNSLKPEDTAVYYCNALWRGRYGYWGQGTQVTVSS	high polyreactivity
QVQLVESGGGLVQAGGSLRLCCAACGRIFYAYAMGWYRQAPGKERELVAAISSSGGRTYYADSVKGRFTISRDNAKNTVYLQMNSLKPEDTAVYYSAAVHYYKFEWGQRTQVTVSS	high polyreactivity

Sequence	polyreactivity (PSR sort gate)
QVQLVESVGGLVQAGGSLRLSCAASGFTFTWYDMGWYRQAPGKERELVAAITTDGGSTYYADSVKGRFTISRDNATNTVYLQMNSLKPEDTEVYYCAAAGYLPFPVEYEYWGQGTQVTVSS	high polyreactivity
QVQLVESGGGLVQAGGSLRLSCAASGSTFVYYAMGWYRQAPGKERELVAAITGSVDSTYYADSVKGRFTISRDNAKNTVYLQMNSLNPEDTAVYYCAAVTYSTYWGQGTQVTVSS	low polyreactivity
QVQLVESGGGLVQAGGSLRLSCAASGSTFEVNAMGWYRQAPGKERELVAAISSSAGDTYYADSVKGRFTISRDNAKNTVYLQMNSLKPEDTAVYYCAAKGFPRSGYPYQAQHMYYWGQGTQVTVSS	low polyreactivity
QVQLVESSAGLVQAGGSLRLSCDASGSTFFYYAMGWYRQAPGKERELVAAISLSDGNTYYADSVKGRFTISRDNAKNTVYLQMNSLKPEDTAVYYCNRVGSQSMKYWGQGTQVTVSS	low polyreactivity
QVQLVESGGGLVQAGGSLRLICAASGITFDYYVMGWSRQAPGKERELVAVITWSGSTYYADSVKGRFTISRDNAKNTVYLQMNSLKPEDTAVYYCAADWVTYYDFEFYYWGQGTQVTVSS	high polyreactivity
QVQLVESGGGLVQAGGSLRLSCAASGRTFGCYAMGWYRQAPGKERELVASITQRGGRTYYADSVKGRFTISRDNAKNTVYLQMNSLKPEDTAVYYCAAKTSPGMYYWVQGTQVTVSS	high polyreactivity
QVHLVESGGGLVHAGGSLRLSCAASGFTLAWNAMGWYRQAPGKETELVATISRYGSSTSYADSVKGRFTISRDNSKNTVYLQMNSLKPEDTAVYYCAADRYTFRMDYWGQGTQVTVSS	high polyreactivity
QVQLVESGGGLVQAGGSLRLSCAASGGIFRSYTMGWYRQAPGKERELVAAISSGASTSYADSVKGRFTISRDNAKNTVYLQMNSLKPEHTAVYYCAVGVLYAGYFYRYRYYYWGQGTQVTVSS	high polyreactivity
QLQLVESGRGLVQAGGSLRLSCDASGYIFGWYAMGSYRQAPGKERELVAAITRGVSTNYADSVKGRFTISRENAMNTVYLQMNSLKPEDTAVYYCNTEDWAVGSPEVEYEYDYWGQGTQVTVSS	low polyreactivity
QVQLVESVGGLVQAGGSLRLSCADSGFTIYSYAMGWYRQAPGKERELVAAITQSGGSTYYADSVKGRFTISRDNAKNTVYLQMNSLKPEDTAVYYCAAVIYIDYDYGYYYWGQGTQVTVSS	low polyreactivity
QVQLVESGGGLVQAGGSLRLSSDASGRILAGYAMGWYRQAPGKERELVAAITRGGTTYYADYVKGRFTISRDNAKNTVYLQINSMKPEDTAVVYTVSSAQYDFWGQGTQVTVSS	low polyreactivity
QVKLVDSGGGLVQAGGSLRLSCAASGSIFGAYAMGWYRQAHGKERELVAPITLRDGSTYYADSVKGRFTISRDNAKNTVYLQLNSLKPEDTAVYYCATYYSAINYGWSKTILYDYWGQGTQVTVSS	low polyreactivity
QVQLVESGGGLVQAGGSLRLSCAASGRIFTFYAMGWYRQAPGKARELVASITGGGNTYYADSVKGRFTISRDNAKNTVYLQMNSLKPEDTAVYYCAAGFSYFTSVLSLDRYYYWGQGTQVTVSS	low polyreactivity
QVQLVESGGGLVQAGGSLRLSCAASGSTFAYYAMGWYRQAPGKERELVAAISRTGGSTYYADSVKGRFTISRDNAKNTVYLQMNSLKPEDTAVYYCNARAPVGTFDYDYWGQGTQVTVSS	low polyreactivity
QVQLVESGGGLVQAGGSLRLSCAASGSTSGSYAMGWYRQAPGKERELVATISWSGGRTYYADSVKGRFTISRDNAKNTVYLQMNSLKPEDTAVYYCAARRYAFRYYGYDYWGQGTQVTVSS	high polyreactivity
QVQLGESGGGLVQAGGSLRLSCAASGSIFTFNTMGRYRQAPGKERELVATISSGGRTSYADSVKGRFTISRDNAKNTVYLQMNSLKPADTAVYYCNKGYYGYTYVESNYWGLGTQVTVSS	low polyreactivity
QVQLVESGGGLVEAGGSLRLSCAASGFTFHYYTMGWYRQAPVKERELVASINYSGGRTYYADSVKGRFTISRDIAMNTVYLQMNSLKPEDTAVYYCNARYKSTYYYWGQGTQVTVSS	high polyreactivity
QVQHVESGGCLVQAGRSLRLSCAASGRTFFPYGMGWDRQAPAKEREFVATISWSGGSTHYADSVKGRFTISRDNAKYTVYLEMNSLKPEDTAVYFCAAGNSLYWYNSGNYWGQGTQVTVSS	low polyreactivity
QVQLVESGGGLVQAGGSLRLSCAASGRIFRYYAMGWYRQAPPKERELVAAIRWSGGRTYYADSVKGRFTISRDNAKNTVYLQMNSLKPEDTAVYYCAADSPYKMDYWGQGTQVTVSS	high polyreactivity
QVQLVESGGGLVQAGGSLRLSCAASGFTFTRNAMGWYRQAPGKERELVAAISSSAGSTSYADSVKGRFTISRDNAKNPVYLQMNRLKPEDTAVYYCATEGSYYSWVGKVGYRYQYHYWGQGTQVTVSS	high polyreactivity
